The results in this text go back to EP1900813A1, “NOVEL PHYSIOLOGICAL SUBSTANCE NESFATIN, SUBSTANCE RELEVANT THERETO, AND USE OF THE SUBSTANCES” (Teijin Pharma Limited, priority 2005, dated 2008).

The test system of assay [1] is nesfatin. The experiment in a line: Specificity of immunohistochemical stain of rat hypothalamus with anti-nesfatin-1 antibody after pre-reaction with peptides. It counts as binding. The note with it: 5 µg peptide per 1 µg antibody. On the procedure:
In a method similar to that in Working Example 4, immunohistochemical stain was carried out on tissue sections of the rat brain each containing arcuate nucleus and paraventricular nucleus, in which anti-nesfatin-1 antibody (nesfatin-1 IgG; Working Example 10) was used in stead of a anti-NAP polyclonal antibody as the primary antibody.

Assay [2] has as its system nesfatin. The experiment in a line: Binding specificity of anti-nesfatin-1 antibody: Western blotting of rat brain extracts after pre-reaction with peptides. The note with it: 5 µg peptide per 1 µg anti-nesfatin-1 antibody, room temperature, 1 hour. How it is done:
Western blotting analysis was carried out by the method described in Working Example 3 with the primary antibody being changed from anti-NAP polyclonal antibody to anti-nesfatin-1 antibody.
For orientation: A western blot detects proteins with antibodies after separation by electrophoresis.

Assay [3] is described as follows: Intraventricular administration of nesfatin-1 alone or leptin alone, amount of food intake. Type of assay: in vivo, rat. Conditions: 5 pmol nesfatin-1 alone, third ventricle; vs control group (physiological saline). How it is done: The experimental condition was similar to that in Working Example 12, and for a group that received 5 pmol of nesfatin-1 alone into the third ventricle of the rat brain immediately before the start of the dark period and a group that received 5 pmol of nesfatin-1 and 8 µg of anti-nesfatin-1 antibody (nesfatin-1 IgG), the amount of food intake for 1 hour after administration was measured and compared to that for the control group (physiological saline alone was administered). Also, for a group that received only leptin (Rat leptin: R & D Systems, 598-LP-01M) (1 µg) which is known to have an activity of suppressing food intake by intraventricular administration and a group that received leptin and anti-nesfatin-1 antibody, its effect on food intake was also studied.

Assay [4] in a line: Single administration of nesfatin-1, nesfatin-2, nesfatin-3 or nesfatin-2/3 into the third ventricle, amount of food intake. Type of assay: in vivo, Wistar rats. How it is done:
Samples used for intracerebral administration were PBS alone (vehicle group), or nesfatin-1, nesfatin-2, nesfatin-3 or nesfatin-2/3 prepared in Working Example 10 each dissolved in PBS, and 25 pmol was administered per individual into the third ventricle immediately before the dark period. Rats used were Wistar rats (purchased from Nippon SLC) and were housed as in Working Example 6, and among 8-9 week-old male Wistar rats, those individuals weighing 200-250 g were selected and used (N=5). The technique of intraventricular administration and the measurement of the amount of food intake in rats were carried out in a method similar to those in Workig Example 6. In the measurement of the amount of food intake, the reduced amount of food at 1 hour after administration (0-1 hr) and […] (1-3 hrs) was determined as food intake.
In the same condition above, 1, 5 or 25 pmol of nesfatin-1 as a sample was administered per rat individual into the third ventricle immediately before the dark period. In this experiment, the amount of food intake was determined at 1 hour after administration (0-1 hr).
The experimental condition was similar to that in Working Example 12, and 5 pmol of nesfatin-1 was administered into the third ventricle of the rat brain immediately before the start of the dark period, the amount decreased of the food (the amount of food intake) during 1 hour immediately after administration (0-1 hr), during 2 hours from 1 hour after the administration (1-3 hr), during 3 hours from 3 hours after the administration (3-6 hr), and during 6 hours from 6 hours after the administration (6-12 hr) was measured as the amount of food intake. As the control group, the amount of food intake by individuals that received physiological saline alone was measured.

Assay [5] is described as follows: Continuous intraventricular administration of nesfatin-1 by osmotic pump, amount of food intake and body weight. It counts as in vivo, Wistar rats. The note with it: 5 pmol per day into the third ventricle, 10 consecutive days, vs physiological saline. On the procedure: The administration of nesfatin-1 was carried out into the ventricle by an osmotic pump for 10 consecutive days. Among 8 week-old male Wistar rats (purchased from Nippon SLC), those individuals weighing 200-250 g were used. The rats received intraperitoneal administration of 40 mg/kg body weight of pentobarbital sodium for anesthesia. After the hair was removed from the head, they were fixed in a brain stereotaxic apparatus (David Kopf Instruments, Model 962) and the scalp was incised and a 23G needle (guide cannula) was implanted so that the tip reaches the third ventricle (2.5 mm behind the bregma, 9.5 mm from the surface). One week after implanting the guide cannula, the animals were subjected to the experiment. The osmotic pump used was Alzet's Model 2002. […] The measurement of the amount of food intake started from the day after the cannula and the osmotic pump were implanted, and the weight of the residual food was measured at 9 a.m. every day, and by determining the difference from the weight of the food on the previous day, the amount of food intake of the day (24 hours) was calculated. From day 6 after the start of administration, body weight was measured at the time of measuring the amount of food intake, and changes in body weight were also recorded.

The nature of assay [6]: Continuous administration of nesfatin-1 into the rat ventricle, weight of adipose tissues and muscle. Type of assay: in vivo. Conditions: 5 pmol per day, third ventricle, osmotic pump, 10 days; vs physiological saline. How it is done: Nesfatin-1 (5 pmol per day) or physiological saline alone (the control group) was administered into the third ventricle of a rat using an osmotic pump for 10 consecutive days (5 and 4 rats were used per group). Intraventricular administration into rats by the osmotic pump was carried out in a manner similar to that in Working Example 13.
After the administration of nesfatin-1 or physiological saline alone for 10 days, each rat was sacrificed, dissected to excise all of the abdominal subcutaneous adipose tissue, the epididymal adipose tissue (these are white adipose tissue) and the retroperitoneal brown adipose tissue, and the weight of them was measured. Also, the gastrocnemial muscles of the bilateral hind legs were harvested and the weight of them was measured. From the weight of the tissues measured, their ratio to the body weight of each individual was determined (tissue weight/body weight, mg/g). For testing of significant difference, analysis of variance was used.

[7] abbreviates: rat brain tissue containing the arcuate nucleus.
[8] abbreviates: rat brain tissue section containing the paraventricular nucleus.

No end group written: not given here.

As for “CART: Rat Cocaine- and Amphetamine-Regulated Transcript 55-102; Peptide Institute, Inc., 4351-s (IPIYEKKYGQVPMCDAGEQCAVRKGARIGKLCDCPRGTSCNSFLLKCL; ends and bridges not checked; cysteine pairing not given here)”, the “immunological stain with anti-nesfatin-1 antibody after pre-reaction with the peptide” value (shortened to “immunological stain”) in assay [1] (setting [7]) and in assay [1] (setting [8]) was “does not disappear” throughout.
“MCH: Human Melanin-Concentrating Hormone; Peptide Institute, Inc., 4369-v”: the “47.5 kd band of nesfatin in Western blotting after pre-reaction of anti-nesfatin-1 antibody with the peptide” value (“47.5 kd band of nesfatin” for short) in assay [2] was “did not disappear”.
For “NPY: Human, Rat Neuropeptide Y; Peptide Institute, Inc., 4158-v”, in assay [2], the “47.5 kd band of nesfatin” value is reported as “did not disappear”. The “immunological stain” value in assay [1] (setting [7]) and in assay [1] (setting [8]) was “does not disappear” each time.
As to “Orexin-A: Human, Rat, Mouse, Bovine Orexin-A; Peptide Institute, Inc., 4346-s (QPLPDCCRQKTCSCRLYELLHGAGNHAAGILTL)”, the “47.5 kd band of nesfatin” value in assay [2] is “did not disappear”.

B1: recombinant nesfatin: recombinant matured mouse nesfatin (SEQ ID NO: 26) from E. coli GST-NEFA fusion protein treated with protease (protein)
chain: GSPIDVDKTKVHNTEPVENARIEPPDTGLYYDEYLKQVIEVLETDPHFREKLQKADIEEIRSGRLSQELDLVSHKVRTRLDELKRQEVGRLRMLIKAKLDALQDTGMNHHLLLKQFEHLNHQNPNTFESRDLDMLIKAATADLEQYDRTRHEEFKKYEMMKEHERREYLKTLSEEKRKEEESKFEEMKRKHEDHPKVNHPGSKDQLKEVWEETDGLDPNDFDPKTFFKLHDVNNDGFLDEQELEALFTRELEKVYNPQNAEDDMIEMEEERLRMREHVMSEIDNNKDRLVTLEEFLRATEKKEFLEPDSWETLDQQQLFTEDELKEYESIIAIQENELKKRAEELQKQKEDLQRQHDHLEAQKQEYHQAVQHLEQKKLQQGIAPSGPAGELKFEPHT
In the case of B1, in assay [3], the “amount of food intake for 1 hour after administration” value is on record as “significantly decreased”.

B2: nesfatin-1: peptide of 82 residues, amino acid Nos. 25 to 106 of nesfatin; rat nesfatin-1 (SEQ ID NO: 15) by solid-phase synthesis (peptide, UniProt Q9JI85 25-106, looked up)
Nesfatin-1: VPIDVDKTKVHNVEPVESARIEPPDTGLYYDEYLKQVIEVLETDPHFREKLQKADIEEIRSGRLSQELDLVSHKVRTRLDEL
modifications: Nesfatin-1
With B2, the “amount of food intake” value was “significant decrerased amount of food intake” in assay [4] (5 pmol, third ventricle, 0-1 hr, vs saline group (0)); “marked effect on the suppression of feeding” in assay [4] (25 pmol into the third ventricle immediately before the dark period, 0-1 hr, vs control (PBS)); “marked effect on the suppression of feeding” in assay [4] (25 pmol into the third ventricle immediately before the dark period, 1-3 hr, vs control (PBS)); “significant decrerased amount of food intake” in assay [4] (25 pmol, third ventricle, 0-1 hr, dose experiment, vs saline group (0)); “decreased amount of food intake, with the increased amount of the administered nesfation-1” in assay [4] (1, 5 or 25 pmol per rat, third ventricle, 0-1 hr, dose relation vs saline group (0)); “Significant decreases in the amount of food intake” in assay [4] (Working Example 27, 5 pmol, third ventricle, 0-1 hr, p<0.01 vs control). Also, the “amount of food intake” value in assay [4] (Working Example 27, 5 pmol, third ventricle, 1-3 hr, p<0.01 vs control) was “Significant decreases in the amount of food intake”; in assay [4] (Working Example 27, 5 pmol, third ventricle, 3-6 hr, p<0.01 vs control) it was “Significant decreases in the amount of food intake”; in assay [4] (Working Example 27, 5 pmol, third ventricle, 6-12 hr, p<0.01 vs control), “an increase in the amount of food intake”. Moreover, the “amount of food intake of the day (24 hours)” value in assay [5] is “decrease in the amount of food intake was noted from day 1”. Further, in assay [5], the “rate of increase in body weight” value is given as “significantly declined”. Besides, the “immunological stain” value in assay [1] (setting [7]) and in assay [1] (setting [8]) was “the stain disappears” each time. For the same molecule, in assay [6], the “ratio of tissue weight to body weight, abdominal subcutaneous adipose tissue” value is recorded as “significant decreases in the ratio of tissue weight to body weight”. Moreover, in assay [6], the “ratio of tissue weight to body weight, epididymal adipose tissue” value is reported as “significant decreases in the ratio of tissue weight to body weight”. For the same molecule, in assay [6], the “ratio of tissue weight to body weight, mesenteric adipose tissue” value is recorded as “significant decreases in the ratio of tissue weight to body weight”. For the same molecule, in assay [6], the “ratio of tissue weight to body weight, retroperitoneal adipose tissue” value was “tended to decrease but no significant difference”. Also, the “total tissue weight to the body weight, brown adipose tissue” value in assay [6] is given as “no significant difference”. Moreover, the “total tissue weight to the body weight, gastrocnemial muscle” value in assay [6] is “no significant difference”.
